Where “and” joins values, the source holds several entries; their conditions need not be identical. Identical values can stand only once.
Settings: Equus caballus; pH 7; 10 °C; GdnHCl; Fluorescence; Imidazole 50 mM

Cytochrome c wild type, P00004, sequence (P00004 whole entry): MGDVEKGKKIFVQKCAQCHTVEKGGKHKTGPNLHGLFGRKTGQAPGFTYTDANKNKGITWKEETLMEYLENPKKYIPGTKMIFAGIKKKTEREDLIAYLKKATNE

## Cytochrome c wild type, P00004
  denaturant m value: 2.7 kcal/mol/M
  unfolding free energy: 8.1 kcal/mol and 7.8 kcal/mol
